Laboratory results reported in US20180022822A1, “NOVEL ANTI-FIBROBLAST ACTIVATION PROTEIN (FAP) BINDING AGENTS AND USES THEREOF” (Mabimmune Diagnostics AG, priority 2016, published 2018).

T1: captured FAP (sFAP) (Homo sapiens, UniProt Q12884)
T1 sequence (Q12884 1-760): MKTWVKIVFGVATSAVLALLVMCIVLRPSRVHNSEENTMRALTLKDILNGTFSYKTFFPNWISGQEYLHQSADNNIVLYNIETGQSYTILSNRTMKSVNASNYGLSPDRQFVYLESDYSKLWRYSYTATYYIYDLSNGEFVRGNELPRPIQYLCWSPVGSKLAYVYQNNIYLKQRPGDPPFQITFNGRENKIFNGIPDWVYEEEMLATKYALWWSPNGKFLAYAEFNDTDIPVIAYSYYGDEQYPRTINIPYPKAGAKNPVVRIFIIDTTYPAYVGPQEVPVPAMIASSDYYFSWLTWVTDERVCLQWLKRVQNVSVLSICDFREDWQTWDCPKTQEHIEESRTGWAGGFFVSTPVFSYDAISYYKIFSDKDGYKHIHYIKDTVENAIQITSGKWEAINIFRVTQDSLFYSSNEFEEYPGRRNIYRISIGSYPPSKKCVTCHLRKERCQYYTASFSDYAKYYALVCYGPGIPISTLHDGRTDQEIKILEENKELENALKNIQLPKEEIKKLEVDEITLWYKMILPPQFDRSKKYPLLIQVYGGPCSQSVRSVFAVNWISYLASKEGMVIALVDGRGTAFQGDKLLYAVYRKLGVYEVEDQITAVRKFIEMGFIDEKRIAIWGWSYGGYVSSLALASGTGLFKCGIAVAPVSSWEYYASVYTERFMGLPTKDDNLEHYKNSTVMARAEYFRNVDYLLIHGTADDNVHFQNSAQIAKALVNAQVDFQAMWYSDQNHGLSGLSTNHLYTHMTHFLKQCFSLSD

T2: recombinant human FAP (sFAP, FAP) versus CD26 and unrelated human antigens (A-N) (Homo sapiens, UniProt Q12884)
T2 sequence (Q12884 26-760 limits assumed): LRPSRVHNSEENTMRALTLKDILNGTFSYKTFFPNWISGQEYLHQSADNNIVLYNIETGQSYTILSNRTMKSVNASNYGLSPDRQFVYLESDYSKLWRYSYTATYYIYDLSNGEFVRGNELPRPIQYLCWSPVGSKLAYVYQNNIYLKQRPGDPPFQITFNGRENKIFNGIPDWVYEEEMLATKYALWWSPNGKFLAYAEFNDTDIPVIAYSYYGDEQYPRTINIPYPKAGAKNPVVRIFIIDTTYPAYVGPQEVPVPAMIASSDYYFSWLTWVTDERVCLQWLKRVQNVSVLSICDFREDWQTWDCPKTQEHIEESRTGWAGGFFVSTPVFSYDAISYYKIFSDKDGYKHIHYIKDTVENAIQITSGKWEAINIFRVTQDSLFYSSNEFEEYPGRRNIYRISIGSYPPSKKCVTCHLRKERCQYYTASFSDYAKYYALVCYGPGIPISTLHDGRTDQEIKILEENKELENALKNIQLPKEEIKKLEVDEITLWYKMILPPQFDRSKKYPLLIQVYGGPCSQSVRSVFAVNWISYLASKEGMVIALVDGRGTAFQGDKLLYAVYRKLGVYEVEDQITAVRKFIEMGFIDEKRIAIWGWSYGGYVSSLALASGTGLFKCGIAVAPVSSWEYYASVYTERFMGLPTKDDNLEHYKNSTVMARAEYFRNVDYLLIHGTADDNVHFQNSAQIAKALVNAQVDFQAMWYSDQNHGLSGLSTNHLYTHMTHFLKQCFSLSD

B1: NI-206.82C2: human-derived recombinant anti-FAP antibody; VH SEQ ID NO: 2 or 4 (PIMC), VL SEQ ID NO: 6 (antibody, V domains shown)
VH: QVQLQQSGPGLVKPSQTLSLTCAISGDSVSSNSVTWNWIRQSPSRGLEWLGRTYYRSKWYNDYAVSVKGRITINPDTSKNQFYLQLKSVTPEDAAVYYCARDSSILYGDYWGQGTLVTVSS
VL: QAVLTQPSSLSASPGASASLTCTLPSGINVGTYRIFWFQQKPGSPPQYLLSYKSDSDNHQGSGVPSRFSGSKDASANAGILLISGLQSEDEADYYCMIWHSSAWVFGGGTKLTVL
B2: NI-206.18H2: human-derived recombinant anti-FAP antibody; VH SEQ ID NO: 41, VL SEQ ID NO: 43 (antibody, listed as Homo sapiens, V domains shown)
VH: QVQLQESGPRLVKPSETLSLTCTVSGYSISNGYYWGWIRQPPGQGLEWIASVWHSGNTYHNPSLKSRVTILVDTLKNQFSLNLKSVTAADTALYYCARSYTRNDVGAFETWGQGTMVTVSS
VL: SYELTQPPSVSVSPGQTARIACSGDELPKRYAYWYQQKSGQAPVLVMYEDTKRPSGIPERLSGSSSGTVTTLTISGAQVEDEADYYCYSTAPSGNHTFVFGTGTRVTVL
B3: NI-206.6D3: human-derived recombinant anti-FAP antibody; VH SEQ ID NO: 49, VL SEQ ID NO: 51 (antibody, listed as Homo sapiens, V domains shown)
VH: EVQLVESGGGLVKPGESLRLSCAASGFTFSKAWMNWVRQGPGKGLEWVGRVKSKTDGGTTDYAAPVKGRFTISRDDSKDTVFLQMNSLKTEDTAVYYCSIQFIVVGDRGRDDQYMDVWGKGTTVTVSS
VL: SYVLTQPPSVSVSPGQTARITCSGDALPKQYAFWYQQKPGQAPVIMIYKDNQRPSGIPERFSGSSSGTTVTLTISGVQTEDEADYYCQSADSTNTHVVFGGGTKLTVL

Tests used:
[1] = target: T1, captured FAP (sFAP); assay: capture ELISA, FAP captured via his-tag with coated anti-His antibody; type: binding; conditions: ELISA, varying antibody concentrations
Experimental: (§1) ELISA assays were performed with varying antibody concentrations to validate the binding of the exemplary antibodies of the present invention to FAP and to be able to determine their half maximal effective concentration (EC50). For the exemplary recombinant human NI-206-18H2, NI-206-20A8, NI-206-6D3, ‘NI-206-14C5, NI-206-34C11, NI-206.82C2, NI-206.59B4, NI-206.22F7, NI-206.27E8, NI-206.12G4 and NI-206.17A6 antibodies, 96-well microplates (Costar, Corning, USA) were coated with FAP, with a mixture of the 3 peptides or with BSA (Sigma-Aldrich, Buchs, Switzerland) diluted to a concentration of 5 μg/ml in carbonate ELISA coating buffer (15 mM Na2CO3, 35 mM NaHCO3, pH 9.4) for the direct ELISA. For the capture ELISA, the microplates were coated with mouse anti-His monoclonal antibody (Clontech) diluted to a concentration of 3 μg/ml in PBS, the plates were then blocked, FAP or BSA were diluted to a concentration of 2 μg/ml in PBS and added to the plates to be captured. The binding efficiency of the antibodies was then tested.
The EC50 values were estimated by a non-linear regression using GraphPad Prism (San Diego, USA) software. […] The binding of NI-206.12G4 towards sFAP was not tested.

[2] = target: T3, BSA (Bos taurus, UniProt P02769); assay: ELISA control binding to BSA; design: species or system bovine
T3 construct: purchased Sigma-Aldrich
T3 sequence (P02769 25-607): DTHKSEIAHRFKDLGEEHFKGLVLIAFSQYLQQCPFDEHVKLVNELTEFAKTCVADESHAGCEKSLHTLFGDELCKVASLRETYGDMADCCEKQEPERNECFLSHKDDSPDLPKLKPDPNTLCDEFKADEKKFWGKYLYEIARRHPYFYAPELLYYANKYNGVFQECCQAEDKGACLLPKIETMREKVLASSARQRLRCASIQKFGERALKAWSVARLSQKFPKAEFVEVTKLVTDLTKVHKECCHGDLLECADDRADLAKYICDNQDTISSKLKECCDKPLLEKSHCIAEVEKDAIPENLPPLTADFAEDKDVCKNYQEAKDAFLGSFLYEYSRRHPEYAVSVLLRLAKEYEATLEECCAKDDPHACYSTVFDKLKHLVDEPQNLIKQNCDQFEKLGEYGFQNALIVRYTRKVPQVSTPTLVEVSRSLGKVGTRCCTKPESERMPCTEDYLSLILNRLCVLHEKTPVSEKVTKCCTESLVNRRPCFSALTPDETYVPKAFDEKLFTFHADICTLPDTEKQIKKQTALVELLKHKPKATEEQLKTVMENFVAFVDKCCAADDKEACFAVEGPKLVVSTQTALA
Experimental: as §1

[3] = target: T2, recombinant human FAP (sFAP, FAP) versus CD26 and unrelated human antigens (A-N); assay: binding specificity ELISA against FAP versus unrelated human antigens; conditions: detection antibody at 20, 4 and 0.8 nM
Experimental: A mouse anti-6×-histidine tag antibody (Clonetech) was coated at a concentration of 3 μg/ml in PBS to a 96 well ELISA plate, the plates were then blocked with 5% BSA in PBS, and enzymatically active recombinant human FAP with an N-terminus 6× histidine tag was added to the plates to be captured. The binding efficiency of NI-206.82C2, NI-206.18H2, NI-206.20A8 and NI-206.6D3 (at 20 nM, 4 nM, and 0.8 nM) against sFAP and of NI-206.18H2, NI-206.20A8 and NI-206.6D3 against FAP as well was then tested by 1 hour incubation, followed by washing with PBS and detection with an HRP-labelled goat anti-human antibody (Jackson Immunoresearch) using a colormetric assay. To assess NI-206.82C2, NI-206.18H2, NI-206.20A8 and NI-206.6D3 binding other targets, recombinant human CD26 (only in case of NI-206.82C2) and fourteen other unrelated recombinant human proteins (A-N) were individually added to a 96-well ELISA plate in triplicate, and the binding efficacy of NI-206.82C2 was evaluated. (FIG. 7A to D)

Molecule | binding to the captured FAP [1] | binding to BSA [2] | colorimetric ELISA signal against FAP versus panel of unrelated human antigens [3]
B1 | specifically and strongly binds | does not bind | significantly greater
B2 | specifically, strongly and similarly bind | does not bind | significantly greater
B3 | strongly and similarly bind | – | significantly greater
